Measurements from the supplement of paper PMC9732359.
± gives the uncertainty stated by the source.

Experiment: protein stability index of a GFP-peptide fusion (yeast GPS) (PSI 1-4); higher = more stable; sorted into four equal gates, so the index is relative within each strain
Procedure, shortened: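 For each peptide, the protein stability index sums the read frequency in every gate after multiplying it by the gate number. Read frequencies came from plasmids that were PCR-amplified from each gate and Illumina-sequenced, with reads assigned to strains by barcodes. The gates were four equal bins of GFP/Cherry fluorescence ratio applied to mid-log yeast in leucine-free medium carrying a pooled library of tiled 17-residue yeast protein peptides fused downstream of GFP on a Cherry-expressing plasmid.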

| Sequence | protein stability index (pdr5∆) | protein stability index (ubr1∆) | protein stability index (doa10∆) | protein stability index (san1∆) |
| --- | --- | --- | --- | --- |
| VLPDADVKLLHSQFMKD [YJL039C/NUP192] | 2.21 ± 0.12 | 2.27 ± 0.25 |  |  |
| VLPNTALKTSIQHVGMI [FAS1] | 2.6 ± 0.16 | 2.4 ± 0.24 | 2.95 ± 0.12 | 1.93 ± 0.14 |
| VLRINKMLSCAGADRLQ [RPL10] | 1.28 ± 0.14 | 1.11 ± 0.084 | 1.1 ± 0.092 | 1.17 ± 0.21 |
| VLRIPEEYLDANVFRLE [MTW1] | 3.44 ± 0.097 | 3.23 ± 0.053 | 3.34 ± 0.1 | 3.19 ± 0.072 |
| VLSPDSNIMSDSKKIKV [GAL11] | 2.42 ± 0.095 | 2.21 ± 0.12 | 2.03 ± 0.13 | 2.44 ± 0.12 |
| VLSTFTAEFGKILAGLH [RPN10] | 3.44 ± 0.15 | 3.05 ± 0.11 | 3.11 ± 0.14 | 3.1 ± 0.14 |
| VMKQVETLVLDEADKMI [PRP28] |  | 3.04 ± 0.12 |  | 3.42 ± 0.13 |
| VMLLGTPDANLISKPAK [UBP6] | 3.28 ± 0.13 | 3.32 ± 0.12 |  | 2.98 ± 0.13 |
| VMRNEIRITSLQGDLTF [SIR4] | 2.35 ± 0.062 | 2.68 ± 0.063 | 2.8 ± 0.073 | 2.65 ± 0.081 |
| VNAPLPTPFKVDDNVDF [RPN2] | 2.75 ± 0.051 | 2.96 ± 0.086 | 2.91 ± 0.077 | 2.74 ± 0.08 |
| VNDSVISAPSMEDEILS [BRN1] | 2.29 ± 0.089 | 2.86 ± 0.073 | 2.05 ± 0.1 | 2.41 ± 0.11 |
| VNDVEELGEIIDEDIGN [RMP1] |  | 3.19 ± 0.28 | 3.41 ± 0.15 | 2.98 ± 0.2 |
| VNEPTKNEEAEIEVDEM [RPN1] | 3.22 ± 0.23 | 3.45 ± 0.16 | 3.25 ± 0.17 | 3.08 ± 0.14 |
| VNGPNVHPGANYLLKRN [RPO31] | 3.21 ± 0.068 | 3.21 ± 0.037 | 3.29 ± 0.056 | 3.26 ± 0.044 |
| VNGRTKSNTIPVTSIPS [GAL11] | 2.87 ± 0.11 | 2.95 ± 0.079 | 2.9 ± 0.072 | 2.99 ± 0.077 |
| VNHLLLFAREIAKSQDK [DPB4] | 2.85 ± 0.16 | 2.08 ± 0.068 | 2.06 ± 0.15 | 2.76 ± 0.14 |
| VNQDKANNASQITPTVP [SNF12] | 3.19 ± 0.081 | 3.18 ± 0.054 | 3.03 ± 0.083 | 3.11 ± 0.063 |
| VNQTGSTKKDTVQLTFL [YCG1] | 3 ± 0.16 | 2.9 ± 0.16 | 3.05 ± 0.29 |  |
| VNSYRLNPNEYFSVTTA [SWI3] | 2.84 ± 0.2 | 2.78 ± 0.22 |  | 2.3 ± 0.26 |
| VNYNSDMIKCFLPKLNS [NUT1] | 1.98 ± 0.12 | 1.27 ± 0.066 | 2.66 ± 0.13 | 2.06 ± 0.13 |
| VNYRHFKAMEDVIAWKN [ITC1] | 3.36 ± 0.17 | 3.37 ± 0.065 | 2.98 ± 0.15 | 3.27 ± 0.077 |
| VPEMIGSVVGIYNGKAF [RPS15] | 1.34 ± 0.074 | 1.41 ± 0.072 | 1.27 ± 0.15 | 1.66 ± 0.24 |
| VPHSHPSDMVIPDHLAE [SNF12] | 2.39 ± 0.047 | 2.31 ± 0.03 | 2.04 ± 0.047 | 2.22 ± 0.068 |
| VPKHMLDKLDEILYYQI [AAR2] | 3 ± 0.099 | 3.17 ± 0.063 | 2.91 ± 0.069 | 2.95 ± 0.076 |
| VPSFLRPDITMYCRPAP [GRR1] | 2.39 ± 0.045 | 2.38 ± 0.051 | 2.12 ± 0.053 | 2.1 ± 0.057 |
| VPTSIQTKRWPTMYTRL [SIN4] | 2.57 ± 0.05 | 2.62 ± 0.039 | 2.18 ± 0.048 | 2.5 ± 0.047 |
| VPVIVKARFVSKLAEEK [RPL28] | 2.832 ± 0.024 | 2.861 ± 0.02 | 2.71 ± 0.024 | 2.786 ± 0.018 |

| Sequence | protein stability index (pdr5∆) | protein stability index (ubr1∆) | protein stability index (doa10∆) | protein stability index (san1∆) |
| --- | --- | --- | --- | --- |
| VPYVLMGQIATFIYFAY [COB] | 1.23 ± 0.1 | 1.28 ± 0.078 | 1.38 ± 0.1 | 1.17 ± 0.16 |
| VQDLGSAISVTNVEDPL [SIR2] | 1.97 ± 0.064 | 2.21 ± 0.054 | 2.34 ± 0.069 | 2.47 ± 0.13 |
| VQDRGLSAVAQAESMKF [RPS3] | 3.16 ± 0.11 | 2.9 ± 0.075 | 3.16 ± 0.11 | 2.73 ± 0.15 |
| VQELLKVLNEISKTTLT [RPN3] | 3.29 ± 0.074 | 3.39 ± 0.071 | 3.1 ± 0.15 | 3.17 ± 0.055 |
| VQGSTLAQLTSKLIPEV [RPS1A] | 2.96 ± 0.063 | 2.76 ± 0.045 | 2.79 ± 0.061 | 3.01 ± 0.051 |
| VQKQTRAGQRTRFKAVV [RPS2] | 3.35 ± 0.14 | 3.23 ± 0.088 | 3.04 ± 0.12 | 3.31 ± 0.15 |
| VQKRDEVKEQLGILKKK [SMC4] | 3.01 ± 0.077 | 2.78 ± 0.05 | 2.75 ± 0.095 | 3.24 ± 0.061 |
| VQLLLHINSILLARVIQ [SNF11] | 1.27 ± 0.076 | 1.47 ± 0.087 | 1.84 ± 0.12 |  |
| VQQQQQQQLRNQIQRQQ [SNF5] | 2.5 ± 0.12 | 2.06 ± 0.074 | 2.16 ± 0.071 | 2.07 ± 0.2 |
| VQSGQIYINKSVPTNSA [RET1] | 3.32 ± 0.082 | 3.33 ± 0.086 | 3.29 ± 0.14 | 3.35 ± 0.091 |
| VQSKARYTVRTFGIRRN [RPL11A] | 1.86 ± 0.073 | 1.53 ± 0.086 | 1.78 ± 0.083 | 1.35 ± 0.11 |
| VQYLRSVQDLGGSATAR [YML031W/NDC1] | 1.5 ± 0.069 | 1.57 ± 0.064 | 2.14 ± 0.13 | 1.53 ± 0.22 |
| VRAVNTGMEPGKTSFFQ [RPP0] | 2.78 ± 0.15 | 2.42 ± 0.25 | 2.58 ± 0.16 | 2.8 ± 0.18 |
| VRDTSPHGISVFLSNLV [BRR2] | 1.54 ± 0.077 | 2.34 ± 0.049 | 1.35 ± 0.1 | 2.55 ± 0.078 |
| VRGGNIEIMGILMGFTL [RRI1] | 2.56 ± 0.092 | 2.9 ± 0.096 | 2.32 ± 0.074 | 2.31 ± 0.16 |
| VRRGNRKRPVPKGATYG [RPL15A] | 3.27 ± 0.19 | 3.44 ± 0.14 |  | 3.6 ± 0.18 |
| VRSANEDGTFSVLYPDE [RRP43] | 3.02 ± 0.088 | 3.28 ± 0.1 | 3.13 ± 0.088 | 3.18 ± 0.06 |
| VRTRGGNKKYRALRIET [RPS8A] | 2.52 ± 0.03 | 2.853 ± 0.022 | 2.71 ± 0.032 | 2.71 ± 0.031 |
| VSALQMLKQHLFKYQGH [PUP1] | 2.71 ± 0.076 | 2.57 ± 0.05 | 2.55 ± 0.073 | 2.65 ± 0.059 |
| VSDDESNGEVLEVGKNN [RPN14] | 2.99 ± 0.16 | 3.24 ± 0.056 | 3.19 ± 0.1 | 3.07 ± 0.16 |
| VSFRTHNSHLSLNYKFT [SRP21] | 2.99 ± 0.046 | 3.15 ± 0.039 | 3.01 ± 0.048 | 3 ± 0.051 |
| VSGDAAALFRLHKFLTK [SWI3] | 2.6 ± 0.15 | 3.08 ± 0.11 | 2.92 ± 0.14 | 2.72 ± 0.098 |
| VSLPEGSFKRVKPQYDE [BRR2] | 3.09 ± 0.12 | 2.95 ± 0.14 | 3.16 ± 0.15 | 3.13 ± 0.11 |
| VSNENKKNIDYQNRSTR [RRI1] | 3.04 ± 0.067 | 3.25 ± 0.055 | 3.13 ± 0.065 | 3.2 ± 0.062 |
| VSNPIRKVFKPSQGMVV [FAS1] | 2.74 ± 0.061 | 2.66 ± 0.068 | 3.08 ± 0.068 | 2.87 ± 0.14 |
| VSSKCNDIHLRFMRFLA [ECM29] | 2.38 ± 0.06 | 2.08 ± 0.08 | 2.23 ± 0.083 | 2.74 ± 0.18 |
